The values that follow come from patent US20100313281A1 (published 2010).

The data set deals with the molecule itself. The data set can be described thus: western blot of BHK media, reducing (29 kDa) against non-reducing (49 kDa) conditions. As for the experimental part: Following selection for stable cell transfectants, media isolated from pools was analyzed by western blot under reducing and non-reducing conditions using a Ztgfβ-9 antibody or an anti-EE epitope tag antibody. […] Under non-reducing conditions, Ztgfβ-9 protein migrated as at 49 kDa species. […] C-terminal EE tagged human Ztgfβ-9 expressed in BHK cells was also anti-EE affinity purified and its N-terminal sequence determined.
A general note: Immunoblotting shows a protein as a band on a membrane.

B1: Human Ztgfβ-9 protein (ligand)
chain: AGAPRAGRRPARPRGCADRPEELLEQLYGRLAAGVLSAFHHTLQLGPREQARNASCPAGGRPADRRFRPPTNLRSVSPWAYRISYDPARYPRYLPEAYCLCRGCLTGLFGEEDVRFRSAPVYMPTVVLRRTPACAGGRSVYTEAYVTIPVGCTCVPEPEKDADSINSSIDKQGAKLLLGPNDAPAGP
notes: also called transforming growth factor beta-9
Regarding B1, the binding result is “binds”.
